{"source": "patent EP1234033B1", "target": "FGF receptor-3c on human osteosarcoma cell line (ATCC, CRL 1543) (human) (UniProt P22607)", "sequence (P22607 23-806)": "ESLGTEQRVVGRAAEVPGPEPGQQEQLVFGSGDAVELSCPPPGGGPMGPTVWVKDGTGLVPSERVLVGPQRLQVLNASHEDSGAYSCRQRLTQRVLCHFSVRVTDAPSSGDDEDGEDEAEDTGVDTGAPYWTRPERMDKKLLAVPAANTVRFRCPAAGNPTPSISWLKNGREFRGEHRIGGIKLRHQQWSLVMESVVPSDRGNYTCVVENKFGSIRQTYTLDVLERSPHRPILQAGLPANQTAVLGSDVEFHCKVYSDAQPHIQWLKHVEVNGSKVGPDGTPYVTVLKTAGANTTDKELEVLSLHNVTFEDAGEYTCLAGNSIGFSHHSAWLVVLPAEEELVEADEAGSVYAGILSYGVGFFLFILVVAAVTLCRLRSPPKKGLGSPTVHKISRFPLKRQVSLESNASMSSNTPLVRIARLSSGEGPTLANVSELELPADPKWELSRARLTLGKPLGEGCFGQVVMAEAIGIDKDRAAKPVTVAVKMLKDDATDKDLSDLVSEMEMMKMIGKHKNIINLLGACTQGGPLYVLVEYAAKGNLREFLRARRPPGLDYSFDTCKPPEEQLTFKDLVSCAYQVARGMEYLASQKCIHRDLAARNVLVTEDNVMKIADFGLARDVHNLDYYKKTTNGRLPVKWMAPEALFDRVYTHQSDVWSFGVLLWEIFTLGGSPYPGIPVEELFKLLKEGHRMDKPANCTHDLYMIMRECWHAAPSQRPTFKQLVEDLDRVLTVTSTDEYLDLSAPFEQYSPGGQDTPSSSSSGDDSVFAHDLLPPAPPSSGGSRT", "assay": "cell-based or functional assay", "data": [{"substance": "FGF-18-saporin conjugate", "values": [{"measurement": "LD50 (sensitivity of cell line to the FGF-18-saporin conjugate)", "value": "< 1", "unit": "nM"}]}]}
